Source: patent US20200270325A1 (Merck Sharp & Dohme, published 2020)
Numbered stars: 1 amine (or outer) side, 2 acyl side, 3 side chain; on linkers, the order of the positions; unused ones are H or OH. Square brackets hold non-standard residues; d marks the D form. Side chains are listed from the residue outwards. Ends that are not written are not given here. * marks the point of attachment. Phe(4-CH2NH2) = NCc1ccc(C[C@H](N)C(=O)O)cc1; C18 diacid = O=C(O)CCCCCCCCCCCCCCCCC(=O)*; αMeW = C[C@](N)(Cc1c[nH]c2ccccc12)C(=O)O; γGlu = O=C(O)[C@H](CCC(=O)[*:2])N[*:1]; Met(O2) = CS(=O)(=O)CC[C@H](N)C(=O)O; αMeD = C[C@](N)(CC(=O)O)C(=O)O; αMeS = C[C@](N)(CO)C(=O)O; AEEA = NCCOCCOCC(=O)O; Aib = CC(C)(N)C(=O)O

B1: TP631 (peptide)
peptide: H[Aib]QGTFTSDYSKYLDARAAK([AEEA-AEEA-γGlu-C18 diacid])DFVQ[αMeW]L[Met(O2)]DT-NH2
modifications: N-terminus assumed
SMILES: CC(C)C[C@H](NC(=O)[C@H](Cc1ccc(O)cc1)NC(=O)[C@H](CCCCN)NC(=O)[C@H](CO)NC(=O)[C@H](Cc1ccc(O)cc1)NC(=O)[C@H](CC(=O)O)NC(=O)[C@H](CO)NC(=O)[C@@H](NC(=O)[C@H](Cc1ccccc1)NC(=O)[C@@H](NC(=O)CNC(=O)[C@H](CCC(N)=O)NC(=O)C(C)(C)NC(=O)[C@@H](N)Cc1c[nH]cn1)[C@@H](C)O)[C@@H](C)O)C(=O)N[C@@H](CC(=O)O)C(=O)N[C@@H](C)C(=O)N[C@@H](CCCNC(=N)N)C(=O)N[C@@H](C)C(=O)N[C@@H](C)C(=O)N[C@@H](CCCCNC(=O)COCCOCCNC(=O)COCCOCCNC(=O)CC[C@H](NC(=O)CCCCCCCCCCCCCCCCC(=O)O)C(=O)O)C(=O)N[C@@H](CC(=O)O)C(=O)N[C@@H](Cc1ccccc1)C(=O)N[C@H](C(=O)N[C@@H](CCC(N)=O)C(=O)N[C@@](C)(Cc1c[nH]c2ccccc12)C(=O)N[C@@H](CC(C)C)C(=O)N[C@@H](CCS(C)(=O)=O)C(=O)N[C@@H](CC(=O)O)C(=O)N[C@H](C(N)=O)[C@@H](C)O)C(C)C
B2: TP634 (peptide)
peptide: H[Aib]QGTFTSDYSKYLDARAAQ[Phe(4-CH2NH2)]([AEEA-AEEA-γGlu-C18 diacid])FVQWL[Met(O2)][αMeD]T-NH2
modifications: N-terminus assumed
SMILES: CC(C)C[C@H](NC(=O)[C@H](Cc1ccc(O)cc1)NC(=O)[C@H](CCCCN)NC(=O)[C@H](CO)NC(=O)[C@H](Cc1ccc(O)cc1)NC(=O)[C@H](CC(=O)O)NC(=O)[C@H](CO)NC(=O)[C@@H](NC(=O)[C@H](Cc1ccccc1)NC(=O)[C@@H](NC(=O)CNC(=O)[C@H](CCC(N)=O)NC(=O)C(C)(C)NC(=O)[C@@H](N)Cc1c[nH]cn1)[C@@H](C)O)[C@@H](C)O)C(=O)N[C@@H](CC(=O)O)C(=O)N[C@@H](C)C(=O)N[C@@H](CCCNC(=N)N)C(=O)N[C@@H](C)C(=O)N[C@@H](C)C(=O)N[C@@H](CCC(N)=O)C(=O)N[C@@H](Cc1ccc(CNC(=O)COCCOCCNC(=O)COCCOCCNC(=O)CC[C@H](NC(=O)CCCCCCCCCCCCCCCCC(=O)O)C(=O)O)cc1)C(=O)N[C@@H](Cc1ccccc1)C(=O)N[C@H](C(=O)N[C@@H](CCC(N)=O)C(=O)N[C@@H](Cc1c[nH]c2ccccc12)C(=O)N[C@@H](CC(C)C)C(=O)N[C@@H](CCS(C)(=O)=O)C(=O)N[C@@](C)(CC(=O)O)C(=O)N[C@H](C(N)=O)[C@@H](C)O)C(C)C
B3: TP635 (peptide)
peptide: H[Aib]QGTFTSDYSKYLDARAA[Phe(4-CH2NH2)]([AEEA-γGlu-C18 diacid])DFVQWLLDT-NH2
modifications: N-terminus assumed
SMILES: CC(C)C[C@H](NC(=O)[C@H](Cc1ccc(O)cc1)NC(=O)[C@H](CCCCN)NC(=O)[C@H](CO)NC(=O)[C@H](Cc1ccc(O)cc1)NC(=O)[C@H](CC(=O)O)NC(=O)[C@H](CO)NC(=O)[C@@H](NC(=O)[C@H](Cc1ccccc1)NC(=O)[C@@H](NC(=O)CNC(=O)[C@H](CCC(N)=O)NC(=O)C(C)(C)NC(=O)[C@@H](N)Cc1c[nH]cn1)[C@@H](C)O)[C@@H](C)O)C(=O)N[C@@H](CC(=O)O)C(=O)N[C@@H](C)C(=O)N[C@@H](CCCNC(=N)N)C(=O)N[C@@H](C)C(=O)N[C@@H](C)C(=O)N[C@@H](Cc1ccc(CNC(=O)COCCOCCNC(=O)CC[C@H](NC(=O)CCCCCCCCCCCCCCCCC(=O)O)C(=O)O)cc1)C(=O)N[C@@H](CC(=O)O)C(=O)N[C@@H](Cc1ccccc1)C(=O)N[C@H](C(=O)N[C@@H](CCC(N)=O)C(=O)N[C@@H](Cc1c[nH]c2ccccc12)C(=O)N[C@@H](CC(C)C)C(=O)N[C@@H](CC(C)C)C(=O)N[C@@H](CC(=O)O)C(=O)N[C@H](C(N)=O)[C@@H](C)O)C(C)C
B4: TP632 (peptide)
peptide: H[Aib]QGTFTSDYSKYLDARAAKDFVQ[αMeW]L[Met(O2)][αMeD]T-NH2
modifications: not fully specified (residue 20); printed as HUQGTFTSDYSKYLDARAAK(PEG2PEG2γEC18-OH)DFVQαMWL2αMDT-NH2
B5: TP633 (peptide)
peptide: H[Aib]QGTFTSDYSKYLDARAAQ[Phe(4-CH2NH2)]([AEEA-γGlu-C18 diacid])FVQWLLDT-NH2
modifications: N-terminus assumed
SMILES: CC(C)C[C@H](NC(=O)[C@H](Cc1ccc(O)cc1)NC(=O)[C@H](CCCCN)NC(=O)[C@H](CO)NC(=O)[C@H](Cc1ccc(O)cc1)NC(=O)[C@H](CC(=O)O)NC(=O)[C@H](CO)NC(=O)[C@@H](NC(=O)[C@H](Cc1ccccc1)NC(=O)[C@@H](NC(=O)CNC(=O)[C@H](CCC(N)=O)NC(=O)C(C)(C)NC(=O)[C@@H](N)Cc1c[nH]cn1)[C@@H](C)O)[C@@H](C)O)C(=O)N[C@@H](CC(=O)O)C(=O)N[C@@H](C)C(=O)N[C@@H](CCCNC(=N)N)C(=O)N[C@@H](C)C(=O)N[C@@H](C)C(=O)N[C@@H](CCC(N)=O)C(=O)N[C@@H](Cc1ccc(CNC(=O)COCCOCCNC(=O)CC[C@H](NC(=O)CCCCCCCCCCCCCCCCC(=O)O)C(=O)O)cc1)C(=O)N[C@@H](Cc1ccccc1)C(=O)N[C@H](C(=O)N[C@@H](CCC(N)=O)C(=O)N[C@@H](Cc1c[nH]c2ccccc12)C(=O)N[C@@H](CC(C)C)C(=O)N[C@@H](CC(C)C)C(=O)N[C@@H](CC(=O)O)C(=O)N[C@H](C(N)=O)[C@@H](C)O)C(C)C

Columns and labels:
[1] = target: human GLP-1 receptor (GLP1R) (human, UniProt P43220 24-463); experiment: cell-based or functional assay
[2] = target: human Glucagon receptor (GCGR) (human, UniProt P47871 26-477); experiment: cell-based or functional assay
Chain of human Glucagon receptor (GCGR) (P47871 26-477): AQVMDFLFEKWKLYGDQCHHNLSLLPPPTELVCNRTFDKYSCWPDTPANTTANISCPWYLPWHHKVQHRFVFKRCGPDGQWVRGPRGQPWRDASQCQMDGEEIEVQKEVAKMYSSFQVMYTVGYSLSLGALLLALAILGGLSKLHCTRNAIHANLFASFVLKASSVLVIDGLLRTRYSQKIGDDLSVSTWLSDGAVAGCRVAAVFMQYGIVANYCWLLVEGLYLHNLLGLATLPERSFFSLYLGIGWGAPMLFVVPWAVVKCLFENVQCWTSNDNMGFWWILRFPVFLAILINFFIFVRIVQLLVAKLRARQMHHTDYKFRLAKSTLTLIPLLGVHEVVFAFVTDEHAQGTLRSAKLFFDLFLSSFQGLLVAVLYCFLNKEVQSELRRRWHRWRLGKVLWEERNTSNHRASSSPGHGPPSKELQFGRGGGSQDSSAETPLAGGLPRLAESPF

Row | Binder | GLP1R EC50 human [1] [nM] | GCGR EC50 human [2] [nM]
1 | B1 | 1.32 | 1.65
2 | H[αMeS]QGTFTSDYSKYLD[Aib]RAAK([AEEA-AEEA-γGlu-C20‑OH])DFVQWL[Met(O2)]DT-NH2 [TP592] | 2.42 | –
3 | B2 | 0.49 | 0.77
4 | H[dS]QGTFTSDYSKYLD[Aib]RAAK([AEEA-AEEA-γGlu-C20‑OH])DFVQWL[Met(O2)]DT-NH2 [TP578] | 4.95 | 0.604
5 | H[αMeS]QGTFTSDYSKYLD[Aib]RAAK([AEEA-AEEA-γGlu-C20‑OH])DFVQWL[Met(O2)]DT-NH2 [TP593] | 4.95 | –
6 | B3 | 2.13 | 0.46
7 | B4 | 6.6 | 5.9
8 | B5 | 0.19 | 0.12
9 | H[Aib]QGTFTSDYSKYLDARAAK([AEEA-AEEA-γGlu-C20‑OH])DFVQWL[Met(O2)][αMeD]T-NH2 [TP565] | 2.26 | 5.42
